Data as given in US20040248767A1 (AUTOGEN RESEARCH, published 2004).

Legend:
[1] = molecular target: T1, BSA (NEB, USA) (UniProt P02769 25-607); assay: SPR (Biacore J), control injected over SAA on CM5 chip
T1 construct: Negative control
Protocol: (§1) The 96% pure SAA was covalently bound to the biospecific sensor surface of the Biacore J (biacore, Sweden). This surface consists of a gold-coated glass slide mounted in a plastic holder (the sensor chip). The CM5 chip (biacore, Sweden) was used for all experiments and this chip is covered with a hydrophilic matrix, consisting of carboxymethylated dextran to which the SAA was covalently bound. The tanis protein fragments were injected into the system and flowed across this chip and sensorgrams were recorded in real-time.
(§2) The interaction of the proteins is indicated by the failure of the response to return to the baseline RU value. The difference between the values post injection (points 1, 3, 5, 7) indicates a binding event between full length tanis and SAA. The difference between the injection point and the max RU indicates the affinity between the two proteins. […] These sensorgrams indicate a potentially high affinity binding with a rapid dissociation of the binding event. A series of controls have also been injected across the SAA chip, these were GST alone, BSA (NEB, USA) alone and buffer alone.

[2] = molecular target: T2, GST alone control protein (UniProt P08515 1-218 = GST); assay: as above
T2 construct: Negative control; also called GST control protein; control GST alone protein
Protocol: as §1, §2

T1 sequence (P02769 25-607 limits assumed): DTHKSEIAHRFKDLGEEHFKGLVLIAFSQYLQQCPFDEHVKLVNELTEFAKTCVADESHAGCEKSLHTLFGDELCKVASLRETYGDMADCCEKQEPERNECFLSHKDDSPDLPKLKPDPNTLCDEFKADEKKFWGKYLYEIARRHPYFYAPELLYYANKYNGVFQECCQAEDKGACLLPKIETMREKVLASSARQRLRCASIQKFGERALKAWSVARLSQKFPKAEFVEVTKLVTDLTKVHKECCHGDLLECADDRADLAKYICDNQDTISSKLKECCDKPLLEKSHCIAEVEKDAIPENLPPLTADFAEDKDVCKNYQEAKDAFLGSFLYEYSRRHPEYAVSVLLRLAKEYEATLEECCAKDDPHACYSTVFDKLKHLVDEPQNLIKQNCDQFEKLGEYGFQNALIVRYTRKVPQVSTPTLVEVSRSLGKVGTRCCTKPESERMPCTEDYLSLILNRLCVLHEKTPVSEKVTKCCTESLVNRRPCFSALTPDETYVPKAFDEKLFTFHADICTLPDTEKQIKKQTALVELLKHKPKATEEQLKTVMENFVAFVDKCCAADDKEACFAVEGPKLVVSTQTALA
T2 sequence (P08515 whole entry): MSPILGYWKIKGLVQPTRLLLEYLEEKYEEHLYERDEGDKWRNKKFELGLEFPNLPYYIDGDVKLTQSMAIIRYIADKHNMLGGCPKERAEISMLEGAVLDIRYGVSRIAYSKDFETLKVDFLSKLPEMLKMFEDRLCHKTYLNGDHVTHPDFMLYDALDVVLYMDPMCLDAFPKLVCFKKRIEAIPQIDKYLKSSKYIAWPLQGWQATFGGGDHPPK

B1: Serum amyloid A (SAA) purified from human sera / human plasma (Trace Scientific) (ligand, UniProt P0DJI8 19-122, looked up)
chain: RSFFSFLGEAFDGARDMWRAYSDMREANYIGSDKYFHARGNYDAAKRGPGGAWAAEVITDARENIQRFFGHGAEDSLADQAANEWGRSGKDPNHFRPAGLPEKY
notes: also called human plasma SAA
Q: Does B1 bind [1]?
A: no binding

Q: Does B1 bind [2]?
A: no binding
